Where a chain is given by its changes, count along the chain named. Numbers in names are those of the source. Where “and” joins values, the source holds several entries; their conditions need not be identical. Equal values may be shown once. Read-outs that look alike come from different tables or passages of the source. Values belong to the molecule of their own block, whether it stands above or below them.
Columns and labels:
[1] = test system: taxol-stabilized microtubules; assay: Microtubule depolymerisation assay; type: biochemical
Method: Microtubule depolymerization assays were performed essentially as described previously ([Hertzer et al., 2006]). MCAK was diluted to 100 nM in S-buffer containing 1 mM DTT and 2 mM Mg-ATP. For depolymerization assays of the motor domain in presence of the CT domain after GST cleavage and removal, 50 nM of motor domain and 100 nM of the CT domain were used. The microtubule depolymerization assay was initiated by the addition of 2 μM taxol-stabilized microtubules to a reaction buffer containing MCAK. Reactions were incubated at room temperature with increasing times and followed by centrifugation to separate microtubules from free tubulin. The data are represented as mean ± SD from three independent experiments.

[2] = target: taxol-stabilized microtubules; assay: Microtubule cosedimentation assay, untreated microtubules; type: binding; details: for Kd: 50 nM, modified Hill equation, at least three independent experiments, read-out: apparent Kd for microtubules
Method: (§1) Full-length MCAK complex was diluted in S buffer (50 mM NaCl, 20 mM Hepes pH 7.0) to 50 nM, in absence of nucleotide to prevent MCAK-dependent microtubule depolymerisation. To assemble an MCAK motor-CT domain complex, 50 nM of the motor domain and 100 nM of the CT domain were used. Microtubule binding assays were performed as described ([Cheeseman et al., 2006]) using equal volumes of taxol-stabilized microtubules in BRB80 and MCAK in S buffer. MCAK was quantified using anti-MCAK antibody against the C terminus of MCAK (709[…]720), generated by GL Biochem (Shangai) Ltd (China) or anti-His antibody to probe for the motor domain alone (GE Healthcare Lifesciences, UK). The data from at least three independent experiments were fitted to a modified Hill equation to determine the apparent Kd.

[3] = test system: subtilisin-treated microtubules; assay: Microtubule cosedimentation assay, subtilisin-treated microtubules; type: binding; details: for affinity for subtilisin-treated microtubules (β-tubulin C termini removed): 50 nM full-length protein, subtilisin 10 min
Method: as §1
Tubulin (5 mg/ml) was first polymerized into MTs in the presence of 1 mM GTP and gradual addition of 0.05 µM, 0.5 µM and 2 µM taxol for 1 hr at 37°C. The polymerized MTs were then treated with 100 μg/ml subtilisin and incubated at 37°C for 10 min to cleave β-tubulin tails and 120 min to cleave both α- and β-tubulin tails. Each reaction was then terminated with the addition of 3 mM PMSF. DM1A (Abcam, UK) and c-terminal β-tubulin (Sigma, UK) were used to detect the α- and β-tails, respectively by western blotting. The subtilisin treated microtubules were then pelleted at 28°C in a TLA100 rotor at 80,000 rpm for 10 min and the microtubule pellets were resuspended in warm BRB80 buffer to obtain subtilisin treated microtubules. The cosedimentation assays were then performed as described before.

[4] = Analytical size-exclusion chromatography (oligomeric state / size); type: physicochemical
Method: Protein expression was induced by addition of 0.5 mM IPTG to BL21(DE3) Codon plus cells transformed with respective constructs at OD600 of 0.7–0.8 for 16 hr at 18°C. Cells were lysed by sonication in lysis buffer (50 mM Hepes, pH 7.4, 200 mM NaCl, 1 mM MgCl2, 1 mM PMSF, 1 mg/ml DNaseI, 2 mg/ml lysozyme, 10 mM Imidazole) and clarified at 20,000 rpm for 1 hr at 4°C. His-tagged and GST-tagged proteins were subsequently purified using Ni-NTA–agarose beads and glutathione-sepharose beads, respectively (GE Healthcare Life Sciences, UK)) according to the manufacturer's guidelines. MCAK constructs containing the motor domain were eluted with elution buffer (50 mM Hepes, pH 7.4, 200 mM NaCl, 1 mM MgCl2, 1 mM ATP, and 300 mM imidazole). Cleavage of the GST tag was performed using the GST-3C protease overnight at 4°C. […] Protein concentrations were determined with a combination of Bradford protein assays and densitometry of Coomassie-stained gels relative to a BSA standard. […]

[5] = Size-exclusion chromatography coupled to multi-angle light scattering (SEC-MALS); type: physicochemical; details: 100 mM HEPES pH 7.2, 150 mM NaCl
Method: Size-exclusion chromatography with on-line multi-angle light scattering (SEC-MALS) was performed using a GE Superdex 200 10/300 GL column on an ÄKTA FPLC system. MALS measurements were performed using a MiniDAWN in-line detector (Wyatt Technology, Santa Barbara, CA, USA). MCAK motor domain and C terminus were at 2 mg/ml in 100 mM HEPES, pH 7.2, 150 mM NaCl. Protein concentration was monitored using a UV monitor at 280 nm and a refractive index detector was set at 690 nm (Optilab DSP, Wyatt Technology, Santa Barbara, CA, USA). Data were analyzed using Astra software (Wyatt Technology, Santa Barbara, CA, USA) using the refractive index detector and a refractive index increment (dn/dc) value of 0.185 ml/g. Gel phase distribution coefficients (Kav) were determined from the equation Kav = (Ve − Vo)/(Vt − Vo), where Ve, Vo, and Vt represent the elution volume of the protein of interest, the column void volume and the total bed volume of the column, respectively.

[6] = full-length protein, absence of nucleotide, untreated microtubules

Kd [2, 6]: ~200 nM and 200 nM
B1: MCAKS715E: full-length MCAK S715E in which the CT domain cannot bind to the motor domains (protein)
chain: MAMDSSLQARLFPGLAIKIQRSNGLIHSANVRTVNLEKSCVSVEWAEGGATKGKEIDFDDVAAINPELLQLLPLHPKDNLPLQENVTIQKQKRRSVNSKIPAPKESLRSRSTRMSTVSELRITAQENDMEVELPAAANSRKQFSVPPAPTRPSCPAVAEIPLRMVSEEMEEQVHSIRGSSSANPVNSVRRKSCLVKEVEKMKNKREEKKAQNSEMRMKRAQEYDSSFPNWEFARMIKEFRATLECHPLTMTDPIEEHRICVCVRKRPLNKQELAKKEIDVISIPSKCLLLVHEPKLKVDLTKYLENQAFCFDFAFDETASNEVVYRFTARPLVQTIFEGGKATCFAYGQTGSGKTHTMGGDLSGKAQNASKGIYAMASRDVFLLKNQPCYRKLGLEVYVTFFEIYNGKLFDLLNKKAKLRVLEDGKQQVQVVGLQEHLVNSADDVIKMIDMGSACRTSGQTFANSNSSRSHACFQIILRAKGRMHGKFSLVDLAGNERGADTSSADRQTRMEGAEINKSLLALKECIRALGQNKAHTPFRESKLTQVLRDSFIGENSRTCMIATISPGISSCEYTLNTLRYADRVKELSPHSGPSGEQLIQMETEEMEACSNGALIPGNLSKEEEELSSQMSSFNEAMTQIRELEEKAMEELKEIIQQGPDWLELSEMTEQPDYDLETFVNKAESALAQQAKHFSALRDVIKALRLAMQLEEQAERQISSKKRPQ
modifications: left off: His tag, end not stated, state not stated
microtubule depolymerase activity, full-length ([1]; 100 nM protein, 2 μM microtubules, 1 mM DTT, 2 mM Mg-ATP, room temperature, three experiments): appeared similar to wild type MCAK
affinity for subtilisin-treated microtubules (β-tubulin C termini removed) ([3]; absence of nucleotide): remained comparably high

B2: MCAKE712C: full-length MCAK with Glu712 mutated to cysteine (protein)
chain: B1 chain with E712C, E715S
modifications: left off: His tag, end not stated, state not stated
notes: full-length MCAK with Glu712 mutated to cysteine
gel filtration profile [4]: eluted as one complex, of similar size to MCAK
microtubule binding, absence of DTT (oxidizing) ([2]; full-length protein 50 nM, absence of DTT and nucleotide): the affinity of MCAKE712C for microtubules was reduced and a fraction of MCAKE712C did not bind microtubules, even at saturating microtubule concentrations
microtubule binding, presence of DTT ([2]; full-length protein 50 nM, with DTT, absence of nucleotide): bound to microtubules similarly to wild type full-length MCAK

Kd [2, 6]: ~1500 nM and 1500 nM
B3: MCAK: full-length wild type MCAK, kinesin-13 microtubule depolymerase (protein)
chain: B1 chain with E715S
modifications: left off: His tag, end not stated, state not stated
notes: full-length wild type MCAK, kinesin-13 microtubule depolymerase
affinity for subtilisin-treated microtubules (β-tubulin C termini removed) ([3]; absence of nucleotide): increased the affinity

B4: CTE712C-bound motor: motor domain covalently bound (disulphide) to CTE712C domain (protein)
chain 1: NPVNSVRRKSCLVKEVEKMKNKREEKKAQNSEMRMKRAQEYDSSFPNWEFARMIKEFRATLECHPLTMTDPIEEHRICVCVRKRPLNKQELAKKEIDVISIPSKCLLLVHEPKLKVDLTKYLENQAFCFDFAFDETASNEVVYRFTARPLVQTIFEGGKATCFAYGQTGSGKTHTMGGDLSGKAQNASKGIYAMASRDVFLLKNQPCYRKLGLEVYVTFFEIYNGKLFDLLNKKAKLRVLEDGKQQVQVVGLQEHLVNSADDVIKMIDMGSACRTSGQTFANSNSSRSHACFQIILRAKGRMHGKFSLVDLAGNERGADTSSADRQTRMEGAEINKSLLALKECIRALGQNKAHTPFRESKLTQVLRDSFIGENSRTCMIATISPGISSCEYTLNTLRYAD
chain 2: VIKALRLAMQLECQASRQISSKKRPQ
modifications: disulphide bridge of Cysteine 287 to Cysteine 712 of the CT_(E712C) domain | disulphide bridge of Cysteine 712 to Cysteine 287 of the motor domain; left off: His tag, end not stated, kept | GST, end n
detection of CT domain in microtubule-bound pellet / supernatant ([2]; western blot, 50 nM motor domain, with and without DTT): remained in the supernatant

Kd ([2]; motor domain alone, absence of nucleotide): 640 nM
Kd ([3]; 50 nM motor domain in motor-CT domain complex, subtilisin-treated microtubules (10 or 120 min), absence of nucleotide): 200 nM
B5: motor domain: motor region of MCAK along with the neck linker region (residues 181–583), His-tagged (protein, UniProt Q99661 181-583, looked up, fragment)
chain: SANPVNSVRRKSCLVKEVEKMKNKREEKKAQNSEMRMKRAQEYDSSFPNWEFARMIKEFRATLECHPLTMTDPIEEHRICVCVRKRPLNKQELAKKEIDVISIPSKCLLLVHEPKLKVDLTKYLENQAFCFDFAFDETASNEVVYRFTARPLVQTIFEGGKATCFAYGQTGSGKTHTMGGDLSGKAQNASKGIYAMASRDVFLLKNQPCYRKLGLEVYVTFFEIYNGKLFDLLNKKAKLRVLEDGKQQVQVVGLQEHLVNSADDVIKMIDMGSACRTSGQTFANSNSSRSHACFQIILRAKGRMHGKFSLVDLAGNERGADTSSADRQTRMEGAEINKSLLALKECIRALGQNKAHTPFRESKLTQVLRDSFIGENSRTCMIATISPGISSCEYTLNTLRYAD
modifications: His tag
notes: motor region of MCAK along with the neck linker region (residues 181–583), His-tagged
apparent size (gel filtration) [4]: ~45 kDa
fraction monomeric ([5]; SEC-MALS, absence of CT domain, 2 mg/ml): over 90%
Monodispersity ([5]; SEC-MALS): 1.005
measured molecular weight (MW) ([5]; SEC-MALS, Superdex 200 10/300 GL, 2 mg/ml, unit printed kDa in text, kD in figure): ~45.3 kDa
Stoke Radius ([5]; from SEC calibration curve): 3.11 nm
microtubule depolymerase activity of motor with CT domain, with and without DTT ([1]; 50 nM motor domain, 100 nM CT domain, 2 μM taxol-stabilized microtubules): could depolymerize microtubules
effect of α-tubulin tail removal on affinity for microtubules lacking β-tubulin tail ([3]; 50 nM motor domain, subtilisin 120 vs 10 min): did not further modify the affinity

— PMC4443670, “The C-terminal region of the motor protein MCAK controls its structure and activity through a conformational switch” (eLife, 2015)
